Measurements from publication PMC2829087.

Target: Myc-GPI-TSHR-ecd (TSH receptor ectodomain, residues 1-412, linked to a GPI anchor, Myc-tagged) (human) (UniProt P16473)
Experiment: FRET or BRET; sensitized emission FRET on transfected HEK 293 cells fixed with 4% paraformaldehyde; anti-HA FITC (donor) and anti-Myc Cy3 (acceptor), or GFP (donor) and anti-Myc Cy3 (acceptor) for full-length receptors; pFRET software

In the case of “HA-GPI-TSHR-ecd (TSH receptor ectodomain, residues 1-412, linked to a GPI anchor, HA-tagged) (from UniProt P16473 21-412) (domain or fragment)”, the FRET efficiency is reported as 8 to 10%.
